From article PMC10955490

Experiments:
SlERF36 [1] = target: T1, SlERF36 (Solanum lycopersicum (tomato), UniProt A0A3Q7IBC2 1-221); assay: competition
SlERF36 [2] = target: T1, SlERF36; assay: EMSA

Binder	binding result (SlERF36 [1])	binding result (SlERF36 [2])
SlGA2ox3 promoter GCC-box unlabelled competitor (dsDNA) DNA 1: ATGCCCCCATCTGCCGCCCCTTCATATTTC DNA 2: GAAATATGAAGGGGCGGCAGATGGGGGCAT	binds	
SlGA2ox3 promoter mutated probe (dsDNA) DNA 1: ATGCCCCCATCTAAAAAACCTTCATATTTC DNA 2: GAAATATGAAGGTTTTTTAGATGGGGGCAT		no binding
SlGA2ox3 promoter GCC-box probe (dsDNA) DNA 1: ATGCCCCCATCTGCCGCCCCTTCATATTTC DNA 2: GAAATATGAAGGGGCGGCAGATGGGGGCAT		binds
